Data taken from patent US20130261012A1 (published 2013).

Target: S3
Experiment: apparent affinity of recombinant chimeric mAb, cell binding

Kd: > 40 nM
B1: FZD10 (receptor)
chain: ISSMDMERPGDGKCQPIEIPMCKDIGYNMTRMPNLMGHENQREAAIQLHEFAPLVEYGCHGHLRFFLCSLYAPMCTEQVSTPIPACRVMCEQARLKCSPIMEQFNFKWPDSLDCRKLPNKNDPNYLCMEAPNNGSDEPTRGSGLFPPLFRPQRPHSAQEHPLKDGGPGRGGCDNPGKFHHVEKSASCAPLCTPGVDVYWSREDKRFAVVWLAIWAVLCFFSSAFTVLTFLIDPARFRYPERPIIFLSMCYCVYSVGYLIRLFAGAESIACDRDSGQLYVIQEGLESTGCTLVFLVLYYFGMASSLWWVVLTLTWFLAAGKKWGHEAIEANSSYFHLAAWAIPAVKTILILVMRRVAGDELTGVCYVGSMDVNALTGFVLIPLACYLVIGTSFILSGFVALFHIRRVMKTGGENTDKLEKLMVRIGLFSVLYTVPATCVIACYFYERLNMDYWKILAAQHKCKMNNQTKTLDCLMAASIPAVEIFMVKIFMLLVVGITSGMWIWTSKTLQSWQQVCSRRLKKKSRRKPASVITSGGIYKKAQHPQKTHHGKYEIPAQSPTCV
